Assay results as given in US20230399394A1 (SUNSHINE GUOJIAN PHARMACEUTICAL SHANGHAI, published 2023).
Where a chain is given by its changes, count along the chain named. Blank lines part the entries; values can stand above or below the binder they belong to.

Assays:
[1] = target: T1, IL-33 mutant protein Y53A (human, UniProt O95760 112-270); test: ELISA as Example 9; row Y53A
T1 construct: Prokaryotic expression
T1 chain: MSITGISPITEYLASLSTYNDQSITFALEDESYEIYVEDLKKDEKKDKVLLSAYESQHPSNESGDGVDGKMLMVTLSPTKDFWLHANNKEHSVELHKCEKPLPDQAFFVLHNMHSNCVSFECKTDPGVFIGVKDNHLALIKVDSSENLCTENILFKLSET
Method: (§1) SA protein was diluted to 2 μg/mL to coat ELISA plate at 100 μL/well overnight at 4° C. The plate was washed with PBST (PBS containing 0.05% Tween20) for 3 times, and blocked with 2% BSA prepared in PBS at 200 μL/well, at room temperature for 2 h. After the plate was washed twice with PBST, IL-33-his-biotin protein was diluted to 1 μg/mL with 1% BSA prepared in PBST, and was added to ELISA plate at 100 μL/well. The plate was incubated at room temperature for 1 h, and each monoclonal antibody was diluted with 1% BSA prepared in PBST in a 3-fold gradient. The highest concentration of antibody was 10 μg/mL, and the antibody was diluted for 12 gradients. Each diluted monoclonal antibody was added to ELISA wells with 100 μL/well, and the plate was incubated at room temperature for 1 h. Each sample was added to duplicate wells in parallel. The plate was washed with PBST for 3 times, and HRP-anti human IgG Fc secondary antibody prepared with PBST was diluted at an appropriate ratio, and was added to ELISA wells at 100 μL/well. […] Each reaction solution was shaken uniformly and OD450 nm was read on a microplate reader. The data was analyzed and EC₅₀ was calculated.
(§2) Subsequently, according to the experimental method of Example 9, the affinity of the above mutant proteins to 874F7-Hu1 was determined, and IL-33 proteins (WT-1, WT-2, WT-3, and WT-4) without any mutation were set as controls.

[2] = target: T2, IL-33 mutant protein K46A (human, UniProt O95760 112-270); test: ELISA as Example 9; row K46A
T2 construct: Prokaryotic expression
T2 chain: T1 chain with K46A, A53Y
Method: as §1, §2

Pep13 = target: T3, Pep13 (human, N-terminal biotin); test: ELISA, biotinylated peptide on streptavidin plate, antibody 10 µg/mL, well 2
T3 construct: Synthetic 20-mer of human IL-33
T3 peptide: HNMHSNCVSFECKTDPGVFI
Method: (§3) To determine the binding activity of antibody to each polypeptide fragment, the ELISA plate was pre-coated by biotin-avidin (SA) which was diluted in coating solution (50 mM carbonate coating buffer, pH 9.6) to 2 μg/ml at 4° C. overnight. The plate was washed with PBST for 3 times, and then blocked with 2% BSA prepared in PBS at room temperature for 2 h with 200 μL/well. The plate was washed once with PBST, and 864F3 and 874F7 with final concentrations of 10 μg/mL were added at 100 μL/well, respectively, and the plate was incubated at room temperature for 1 h. The plate was washed with PBST for 3 times, and the goat anti-mouse IgG labeled by HRP was added and placed at 37° C. for 30 min. After washing the plate with PBST for 3 times, the plate was patted on the absorbent paper to remove residual droplets as far as possible. 100 μl TMB developing solution was added to each well, and the plate was placed at room temperature (20±5° C.) for 5 minutes away from light; 50 μl 2M H₂SO₄ terminating solution was added to each well to terminate the substrate reaction. OD values were read at 450 nm on the microplate reader to analyze the binding ability of the antibody to each polypeptide fragment. The experimental results are shown in […]

Pep8 = target: T4, Pep8 (human, N-terminal biotin); test: as above
T4 construct: Synthetic 20-mer of human IL-33
T4 peptide: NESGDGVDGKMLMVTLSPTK
Method: as §3

Pep7 = target: T5, Pep7 (human, N-terminal biotin); test: as above
T5 construct: Synthetic 20-mer of human IL-33
T5 peptide: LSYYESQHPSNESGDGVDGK
Method: as §3

Pep1 = target: T6, Pep1 (human, N-terminal biotin); test: as above
T6 construct: Synthetic 20-mer of human IL-33
T6 peptide: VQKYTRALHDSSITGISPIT
Method: as §3

Pep3 = target: T7, Pep3 (human, N-terminal biotin); test: as above
T7 construct: Synthetic 20-mer of human IL-33
T7 peptide: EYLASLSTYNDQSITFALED
Method: as §3

Pep5 = target: T8, Pep5 (human, N-terminal biotin); test: as above
T8 construct: Synthetic 20-mer of human IL-33
T8 peptide: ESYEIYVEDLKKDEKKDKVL
Method: as §3

Pep6 = target: T9, Pep6 (human, N-terminal biotin); test: as above
T9 construct: Synthetic 20-mer of human IL-33
T9 peptide: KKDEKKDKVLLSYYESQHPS
Method: as §3

Pep10 = target: T10, Pep10 (human, N-terminal biotin); test: as above
T10 construct: Synthetic 20-mer of human IL-33
T10 peptide: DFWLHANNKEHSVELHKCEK
Method: as §3

Pep11 = target: T11, Pep11 (human, N-terminal biotin); test: as above
T11 construct: Synthetic 20-mer of human IL-33
T11 peptide: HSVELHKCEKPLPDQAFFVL
Method: as §3

Pep15 = target: T12, Pep15 (human, N-terminal biotin); test: as above
T12 construct: Synthetic 20-mer of human IL-33
T12 peptide: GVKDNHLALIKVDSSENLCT
Method: as §3

Pep12 = target: T13, Pep12 (human, N-terminal biotin); test: as above
T13 construct: Synthetic 20-mer of human IL-33
T13 peptide: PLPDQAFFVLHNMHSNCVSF
Method: as §3

Pep4 = target: T14, Pep4 (human, N-terminal biotin); test: as above
T14 construct: Synthetic 20-mer of human IL-33
T14 peptide: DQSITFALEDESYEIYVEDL
Method: as §3

Pep14 = target: T15, Pep14 (human, N-terminal biotin); test: as above
T15 construct: Synthetic 20-mer of human IL-33
T15 peptide: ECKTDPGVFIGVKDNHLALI
Method: as §3

Pep16 = target: T16, Pep16 (human, N-terminal biotin); test: as above
T16 construct: Synthetic 20-mer of human IL-33
T16 peptide: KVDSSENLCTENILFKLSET
Method: as §3

EC50 [1]: 0.44 nM
EC50 [2]: 0.23 nM
B1: 874F7-Hu1 (antibody, human IgG4 S228P, kappa)
heavy: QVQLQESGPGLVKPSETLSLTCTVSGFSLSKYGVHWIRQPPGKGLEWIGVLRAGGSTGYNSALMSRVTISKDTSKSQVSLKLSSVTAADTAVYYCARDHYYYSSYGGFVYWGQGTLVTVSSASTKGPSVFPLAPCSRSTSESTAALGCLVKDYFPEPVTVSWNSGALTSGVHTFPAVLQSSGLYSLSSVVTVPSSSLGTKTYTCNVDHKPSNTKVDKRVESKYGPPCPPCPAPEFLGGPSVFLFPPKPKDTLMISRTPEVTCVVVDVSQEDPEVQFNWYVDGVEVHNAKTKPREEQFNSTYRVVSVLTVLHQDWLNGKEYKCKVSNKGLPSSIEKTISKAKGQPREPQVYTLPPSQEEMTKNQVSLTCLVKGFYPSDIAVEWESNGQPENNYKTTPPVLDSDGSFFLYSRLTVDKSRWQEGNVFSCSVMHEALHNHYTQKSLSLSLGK
light: DIQMTQSPSSVSASVGDRVTITCLASQTIGAWLAWYQQKPGKSPKLLIYAATRLADGVPSRFSGSGSGTDFTLTISSLQPEDFATYYCQQLDSSPYTFGQGTKVEIKRTVAAPSVFIFPPSDEQLKSGTASVVCLLNNFYPREAKVQWKVDNALQSGNSQESVTEQDSKDSTYSLSSTLTLSKADYEKHKVYACEVTHQGLSSPVTKSFNRGEC
notes: also called 874F7-Hul; humanized antibody 874F7-Hu1

OD450 (Pep13): 0.053 OD450
OD450 (Pep8): 0.047 OD450
OD450 (Pep7): 0.051 OD450
OD450 (Pep1): 0.061 OD450
OD450 (Pep3): 0.048 OD450
OD450 (Pep5): 0.049 OD450
OD450 (Pep6): 1.03 OD450
OD450 (Pep10): 0.052 OD450
OD450 (Pep11): 0.053 OD450
OD450 (Pep15): 0.052 OD450
OD450 (Pep12): 0.053 OD450
OD450 (Pep4): 0.048 OD450
OD450 (Pep14): 0.053 OD450
OD450 (Pep16): 0.049 OD450
B2: 874F7 (antibody, V domains shown)
VH: QVQLKESGPGLVAPSHSLSITCNVSGFSLSKYGVHWIRQIPGRGLDWLGVLRAGGSTGYNSALMSRLSISKDSSKSQVFLKMNDLRTDDTAVYFCVRDHYYYSSYGGFVYWGQGTLVTVSA
VL: DIQMTQSPASQSASLGESVTITCLASQTIGAWLAWYRQQPGKSPQLLIYAATRLADGVPSRFSGSGSGTEFSFKINNLQAEDFVSYYCQQLDSSPYTFGGGTRLEM
notes: Murine hybridoma antibody purified on Protein G; also called murine antibody 874F7
